Measurements taken from paper PMC1291349, “Molecular Identification of a Malaria Merozoite Surface Sheddase” (PLoS Pathogens, 2005).

Experiments:
[1] = target: PfSUB2T, 72-kDa terminal intracellular form of PfSUB2, HA3-tagged (P. falciparum) (UniProt O97364)
[2] = target: T1, subtilisin BPN′ (UniProt P00782 108-382); test: enzyme inhibition kinetics (Ki determination); hydrolysis of N-succinyl-L-Ala-L-Ala-L-Pro-L-Phe-p-nitroanilide by subtilisin BPN′ with PfSUB2PD; Ki determined as in ref. 33; data not shown; settings: both partners purified
T1 construct: subtilisin BPN′, a bacterial subtilisin; source: bought: Sigma
T1 sequence (looked up): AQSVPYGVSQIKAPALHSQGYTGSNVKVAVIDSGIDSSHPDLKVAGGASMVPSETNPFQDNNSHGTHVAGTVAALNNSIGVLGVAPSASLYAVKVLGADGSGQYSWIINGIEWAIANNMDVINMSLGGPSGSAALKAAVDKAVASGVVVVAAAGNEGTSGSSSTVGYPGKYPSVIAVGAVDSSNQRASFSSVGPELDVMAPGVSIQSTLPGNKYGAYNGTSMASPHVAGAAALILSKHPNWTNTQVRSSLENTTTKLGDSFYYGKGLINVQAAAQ

Chain of PfSUB2T, 72-kDa terminal intracellular form of PfSUB2, HA3-tagged (P. falciparum) (O97364 688-1342): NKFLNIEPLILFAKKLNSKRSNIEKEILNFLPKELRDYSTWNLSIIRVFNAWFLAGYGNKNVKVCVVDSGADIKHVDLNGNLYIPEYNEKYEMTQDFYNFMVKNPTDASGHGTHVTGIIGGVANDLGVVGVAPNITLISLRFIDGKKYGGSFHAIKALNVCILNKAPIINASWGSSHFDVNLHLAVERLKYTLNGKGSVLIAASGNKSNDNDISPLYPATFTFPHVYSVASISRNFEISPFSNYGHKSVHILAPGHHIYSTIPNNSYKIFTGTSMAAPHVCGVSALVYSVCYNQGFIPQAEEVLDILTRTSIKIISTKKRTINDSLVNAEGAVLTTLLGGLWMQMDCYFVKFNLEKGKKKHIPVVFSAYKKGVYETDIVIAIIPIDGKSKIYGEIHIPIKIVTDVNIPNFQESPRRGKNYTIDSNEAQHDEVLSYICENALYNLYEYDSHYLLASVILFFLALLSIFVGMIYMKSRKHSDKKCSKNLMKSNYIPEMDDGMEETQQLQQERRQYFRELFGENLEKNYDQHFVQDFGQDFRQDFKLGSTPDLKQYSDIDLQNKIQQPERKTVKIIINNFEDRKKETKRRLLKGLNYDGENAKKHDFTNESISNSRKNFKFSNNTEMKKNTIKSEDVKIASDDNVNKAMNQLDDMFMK

B1: PfSUB2PD (recombinant PfSUB2 propeptide, Asn22-Leu687) (domain or fragment)
chain: NNNNNYYLSNIELYNYKLRKRNRILNNNINDRKSFLSDLEQNYKPLFDIYELSANFEKRRKELEKKTKGEENEIEKKKENDLEEKKENEIEKKKENDLEKEYNDVINLLELSLSSEYKELNADVSNNDNSGHEENNKHKLNKKNSSNYKNDKSLDELIKGAILKLKQNPNIKNKNMLDYDKIFKIIKEKLINKNLASNKIKGGDNEKLKEEKKQSDISTNVEVKKDIINDQLNKGIPTKIENKDDMINKESNKEDITNEGKSNSLNNLNTLNNDGNIITKVYDHYTIVTNSNDILNDISIDASDISKNSIGGINIPFNENDNSSFTHQRYIVLSNNGEKKYKIVLMTKNPKFMDMDGIYDEEEKKESLIELNQKVNKEENTNLYDGTGTLYYGKKSKKEKENTQQKGGNNPNVDINILNNNNNNNNNNNNNSNNNSNSMNDEEINYNNNNNKESPSMFRRFINFLSFSGNENETEDTLIYHNKNDNSYKNKKEGTGKNNDNNDPNNNNNKKILLNVDKLVDQYLLNLKNNHTSKQELILVLKGELDLHSKNMKNVINNAKKNLEKYFKEHFKEFDKISYDISTPINFLCIFIPTLFDMNNMDLLKQALLILHNDLHEYVENWSFSSTYHTYEADYIKEQDSVYDRSPKKKYIKASKKLYNNKYSFL
notes: PfSUB2, subtilisin-like protease 2 of P. falciparum T9/96, propeptide region Asn22-Leu687, amplified from the synthetic gene pfsub2synth; Asn22 is the predicted N-terminus after signal peptide removal; Cleavable 46-residue N-terminal fusion peptide with His6 and S-tag, from the vector pET-30Xa/LIC; not shown: His6, N-terminal, kept; S-tag, N-terminal, kept
B1 showed an IC50 of inhibition of shedding of AMA1 and MSP1 (MESH activity) from isolated 3D7 merozoites; PfSUB2PD titrated from 1.2 μM to 0.075 μM [1] of 300 nM and a Ki [2] of 1200 nM.
